B1: diketide-ACP2(Ø): diketide on isolated ACP2 domain without linker region (conjugate)
chain: HHHHHHDRLAGLPRAERTAELVRLVRTSTATVLGHDDPKAVRATTPFKELGFDSLAAVRLRNLLNAATGLRLPSTLVFDHPNASAVAGFLDAELG
B2: holo-ACP4(4): phosphopantetheinylated DEBS ACP4 domain with its natural C-terminal linker (protein)
chain: HHHHHHNVVDRLAGRSESDQVAGLAELVRSHAAAVSGYGSADQLPERKAFKDLGFDSLAAVELRNRLGTATGVRLPSTLVFDHPTPLAVAEHLRDRLFAASPAVDIGDRLDELEKALEALSAEDGHDDVGQRLESLLRRWNSRRADAPSTSAISEDASDDELFSMLDQRFGGGEDL
B3: diketide-eryLDD(Ø): diketide on the DEBS loading didomain with no C-terminal linker (conjugate)
chain: MSGPRSRTTSRRTPVRIGAVVVASSTSELLDGLAAVADGRPHASVVRGVARPSAPVVFVFPGQGAQWAGMAGELLGESRVFAAAMDACARAFEPVTDWTLAQVLDSPEQSRRVEVVQPALFAVQTSLAALWRSFGVTPDAVVGHSIGELAAAHVCGAAGAADAARAAALWSREMIPLVGNGDMAAVALSADEIEPRIARWDDDVVLAGVNGPRSVLLTGSPEPVARRVQELSAEGVRAQVINVSMAAHSAQVDDIAEGMRSALAWFAPGGSEVPFYASLTGGAVDTRELVADYWRRSFRLPVRFDEAIRSALEVGPGTFVEASPHPVLAAALQQTLDAEGSSAAVVPTLQRGQGGMRRFLLAAAQAFTGGVAVDWTAAYDDVGPNPALCRSSRRPRRKTSRPSPASTGTRHRTCCERLLAVVNGETAALAGREADAEATFRELGLDSVLAAQLRAKVSAAIGREVNIALLYDHPTPRALAEALAAGT
modifications: non-natural residues
notes: diketide on the DEBS loading didomain with no C-terminal linker

Legend:
Type in all cases: biochemical
(5)M2+TE [1] = target: T1, (5)M2+TE (Saccharopolyspora erythraea, UniProt Q03131+Q03133); assay: Substrate transfer and elongation assay, acceptor DEBS module 2; details: 20 μM substrate, 2 hours
T1 construct: The protein was, in each case, a single module of the DEBS PKS fused to the thioesterase (TE) termination region of module 6; first 39 amino acids of module 5 (N-ERL); made in house; host or cells: E. coli (BL21(DE3) with sfp)
Method: (§1) Substrate transfer and elongation assays. Qualitative assays were performed with a diketide-ACP or diketide-PCP substrate either taken directly from the so phosphopantetheinlyation reaction or after further purification of the substrate. These assays were performed with 20 μM diketide-ACP/PCP substrate for 2 hours in the following reaction conditions: 1 μM acceptor module, 0.5 mM ^14C-methylmalonyl CoA, 4 mM NADPH in buffer C, 30° C. After quenching by addition of 250 μL EtOAc and vortexing, the products were extracted with 2×250 μL EtOAc, resolved on a silica gel TLC plate, and visualized on a Packard InstantImager.
(§2) The kinetics of substrate transfer at the module 2-module 3 interface followed by elongation and product release were examined as a function of the k60 μM and kcat/KM values of the overall reaction. […] In many cases, the k60μm values approximate the maximal overall turnover rates, as determined by back calculating the KM value for the reactions. True saturation kinetics were not practical because of the technical limitations (e.g., solubility) and limited supply associated with high molecular weight substrates such as diketide-ACP and diketide-PCP. kcat/KM values were determined by competitive assay of the substrate of interest against a substrate with a known kcat/KM value, as previously described (Wu, et al., (2001) J. Am. Chem. Soc. 123, 6465-6474). […]

(5)M6+TE = target: T2, (5)M6+TE (Saccharopolyspora erythraea, UniProt Q03133, DEL53-1503); assay: Substrate transfer and elongation assay, acceptor DEBS module 6; details: 20 μM substrate, 2 hours
T2 construct: The protein was, in each case, a single module of the DEBS PKS fused to the thioesterase (TE) termination region of module 6; first 39 amino acids of module 5 (N-ERL); made in house; host or cells: E. coli (BL21(DE3) with sfp)
Method: as §1, §2

(5)M2+TE [2] = target: T1, (5)M2+TE; assay: Labeling of holo-ACP4(4) with 14C-2a mediated by (5)M2+TE (back-transfer); details: 20 μM holo-ACP4(4), 1 mM 14C-2a, with and without 1 μM (5)M2+TE
Method: Labeling of Holo-ACP4(4) with ^14C-2a Mediated by (5)M2+TE. Holo-ACP4(4) (20 μM) was incubated with 1 mM [1-^14C]-labeled 2a (custom synthesized by Amersham Pharmacia, specific activity 55 mCi/mmol) and 1 μM (5)M2+TE in reaction buffer C for 10 min at 30° C. The protein was precipitated with 75% acetone/H2O for 5 min at −80° C. After washing the pellet with 6.25% (w/v) TCA to remove excess salts followed by 500 μL of 75% acetone/H2O to remove residual, unbound 14 C-2a, the precipitated protein was resuspended in 8 μL of buffer A and 4 μL of SDS sample buffer, and resolved on a 420% SDS-PAGE gradient gel (Bio-Rad). The proteins were visualized with Coomassie blue stain and dried, and the radioactivity was detected either on a Packard InstantImager or by exposing the gel to X-ray film.

Molecule | qualitative transfer of diketide to (5)M2+TE ((5)M2+TE [1]) | qualitative transfer of diketide to (5)M6+TE ((5)M6+TE) | radiolabeling of the ACP by 14C-2a ((5)M2+TE [2])
B1 | able to channel the diketide substrate | able to channel the diketide substrate | 
B2 |  |  | radiolabeled only in the reaction containing (5-M2+TE
B3 | able to channel the diketide substrate | able to channel the diketide substrate | 
